B1: HDV Ribozyme (parent)
chain: GGCCGGCAUGGUCCCAGCCUCCUCGCUGGCGCCGGCUGGGCAACAUUCCGAGGGGACCGUCCCCUCGGUAAUGGCGAAUGGGACCCA

Variants of: B1
Assay: self-cleavage, relative activity (ratio to wild type); higher = more cleavage; co-transcriptional

Question: With GGCCGGCAUGGGCCCAGCCUCCUCGCUGGCGCCGGCUGGGCAACAUUCCGGGGGGACCGUCCCCUCGGUAAUGGCGAAUGGGACCCA as the variant, how does the self-cleavage read?
Answer: 0.867

Question: For GGCCGGCAUGGGCCCAGCCUCCUCGCUGGCGCCGGCUGGGCAACAUUCCGCGGGGACCGUCCCCUCGGUAAUGGCGAAUGGGACCCA, which self-cleavage is on record?
Answer: 0.415

Question: For GGCCGGCAUGGGCCCAGCCUCCUCGCUGGCGCCGGCUGGGCACCAUUCCGAGGGGACCGUCCCCUCGGUAAUGGCGAAUGGGACCCA, which self-cleavage is on record?
Answer: 0.431

Question: For GGCCGGCAUGGCCCCAGCCUCCUCGCUGGCGCCGGCUGGGCAACAUUCCGAGGGGACCGUCCCCUCGGGAAUGGCGAAUGGGACCCA, which self-cleavage is on record?
Answer: 0.485

Question: With GGCCGGCAUGGCCCCAGCCUCCUCGCUGGCGCCGGCUGGGCAACAUUCCGAGGGGACCGUCCCCUCGGCAAUGGCGAAUGGGACCCA as the variant, how does the self-cleavage read?
Answer: 0.391

Question: Which self-cleavage does the source give for GGCCGGCAUGGCCCCAGCCUCCGCGCUGGCGCCGGCUGGGCAACAUUCCGAGGGGACCGUCCCCUCGGUAAUGGCGAAUGGGACCCA here?
Answer: 0.208

Question: Which self-cleavage does the source give for GGCCGGCAUGGCCCCAGCCUCCCCGCUGGCGCCGGCUGGGCAACAUUCCGAGGGGACCGUCCCCUCGGUAAUGGCGAAUGGGACCCA here?
Answer: 0.755

Question: With GGCCGGCAUGGGCCCAGCCUCCUCGCUGGCGCCGGCUGGGCAACAUUCCGAGGGGACCGUCCCCUCGGUAAUGGCGAAUGGGACCCG as the variant, how does the self-cleavage read?
Answer: 0.723

Question: For GGCCGGCAUGGGCCCAGCCUCCUCGCUGGCGCCGGCUGGGCAACAUUCCGAGGGGACCGUCCCCUCGGUAAUGGCGAAUGGGACCCC, which self-cleavage is on record?
Answer: 0.749

Question: With GGCCGGCAUGGCCCCAGCCUCCUCGCUGGCGCCGGCUGGGCAACAUUCCGAGGGGACCGACCCCUCGGUAAUGGCGAAUGGGACCCA as the variant, how does the self-cleavage read?
Answer: 0.145

Question: For GGCCGGCAUGGGCCCAGCAUCCUCGCUGGCGCCGGCUGGGCAACAUUCCGAGGGGACCGUCCCCUCGGUAAUGGCGAAUGGGACCCA, which self-cleavage is on record?
Answer: 0.161

Question: Which self-cleavage does the source give for GGCCGGCAUGGGCCCAGCGUCCUCGCUGGCGCCGGCUGGGCAACAUUCCGAGGGGACCGUCCCCUCGGUAAUGGCGAAUGGGACCCA here?
Answer: 0

Question: For GGCCGGCAUGGGCCCAGCUUCCUCGCUGGCGCCGGCUGGGCAACAUUCCGAGGGGACCGUCCCCUCGGUAAUGGCGAAUGGGACCCA, which self-cleavage is on record?
Answer: 0.0378

Question: For GGCCGGCAUGGCCCCAGCCUCCUCGCUGGCGCCGGCUGGGCAACAUUCCGAGGGGACCGUCCCCUCGGUAAUGACGAAUGGGACCCA, which self-cleavage is on record?
Answer: 0.0519

Question: For GGCCGGCAUGGCCCCAGCCUCCUCGCUGGCGCCGGCUGGGCAACAUUCCGAGGGGACCGUCCCCUCGGUAAUGCCGAAUGGGACCCA, which self-cleavage is on record?
Answer: 0

Question: With GGCCGGCAUGGGCCCAGCCUCCUCGCUGGCGCCGGCUGGGCAACAUUCCGAGGGGACCGUCCCCUCGGUCAUGGCGAAUGGGACCCA as the variant, how does the self-cleavage read?
Answer: 0.462

Question: With GGCCGGCAUGGCCCCAGCCUCCUCGCUGGCGCCGGCUGGGCAACAUUCCGAGGGGACCGUCCCCCCGGUAAUGGCGAAUGGGACCCA as the variant, how does the self-cleavage read?
Answer: 0.492

Question: For GGCCGGCAUGGCCCCAGCCUCCUCGCUGGCGCCGGCUGGGCAACAUUCCGAGGGGACCGUCCCCGCGGUAAUGGCGAAUGGGACCCA, which self-cleavage is on record?
Answer: 0.323

Question: Which self-cleavage does the source give for GGCCGGCAUGGCCCCAGCCUCCUCGCUGGCGCCGGCUGGGCAACAUUCCGAGGGGACCGUCCCCACGGUAAUGGCGAAUGGGACCCA here?
Answer: 0.489

Question: With GGCCGGCAUGGGCCCAGCCUCCUCGCUGGCGCCGGCUGGGCAACAUUCCGAGGGGACCGUCCCCUCGGUAGUGGCGAAUGGGACCCA as the variant, how does the self-cleavage read?
Answer: 0.594

Question: For GGCCGGCAUGGGCCCAGCCUCCUCGCUGGCGCCGGCUGGGCAACAUUCCGAGGGGACCGUCCCCUCGGUACUGGCGAAUGGGACCCA, which self-cleavage is on record?
Answer: 0.712

Question: With GGCCGGCAUGGCCCCAGCCUCCUCGCUGGCGCCGGCUGGGCAACAUUCCGAGGGGACCGUCCCCUCGGUAAUGGCUAAUGGGACCCA as the variant, how does the self-cleavage read?
Answer: 0.489

Question: For GGCCGGCAUGGGCCCAGCCUCCUCGCUGGCGCCGGCUGGGCAACCUUCCGAGGGGACCGUCCCCUCGGUAAUGGCGAAUGGGACCCA, which self-cleavage is on record?
Answer: 0.399

Question: For GGCCGGCAUGGGCCCAGCCUCCUCGCUGGCGCCGGCUGGGCAACAUUCCGAGGGGUCCGUCCCCUCGGUAAUGGCGAAUGGGACCCA, which self-cleavage is on record?
Answer: 1.22

Question: For GGCCGGCAUGGGCCCAGCCUCCUCGCUGGCGCCGGCUGGGCAACAUUCCGAGGGGGCCGUCCCCUCGGUAAUGGCGAAUGGGACCCA, which self-cleavage is on record?
Answer: 0.767

Question: With GGCCGGCAUGGCCCCAGCCUCCUCGCUGGCGCCGGCUGGGCAACACUCCGAGGGGACCGUCCCCUCGGUAAUGGCGAAUGGGACCCA as the variant, how does the self-cleavage read?
Answer: 0.101

Question: For GGCCGGCAUGGGCCCAGCCUCCUCGAUGGCGCCGGCUGGGCAACAUUCCGAGGGGACCGUCCCCUCGGUAAUGGCGAAUGGGACCCA, which self-cleavage is on record?
Answer: 0.748

Question: For GGCCGGCAUGGCCCCAGCCUCCUCGCUGGCGCCGGCGGGGCAACAUUCCGAGGGGACCGUCCCCUCGGUAAUGGCGAAUGGGACCCA, which self-cleavage is on record?
Answer: 0.332

Question: With GGCCGGCAUGGCCCCAGCCUCCUCGCUGGCGCCGGCAGGGCAACAUUCCGAGGGGACCGUCCCCUCGGUAAUGGCGAAUGGGACCCA as the variant, how does the self-cleavage read?
Answer: 0.147

Question: With GGCCGGCAUGGCCCCAGCCUCCUCGCUGGCGCCGGCCGGGCAACAUUCCGAGGGGACCGUCCCCUCGGUAAUGGCGAAUGGGACCCA as the variant, how does the self-cleavage read?
Answer: 0.35

Question: For GGCCGGCAUGGGCCCAGCCUCCUCGCUGGCGCCGGCUGGGCAACAUUCCGAGGGGACCGUCCCCUCGGUAAUGGCGGAUGGGACCCA, which self-cleavage is on record?
Answer: 0.443

Question: With GGCCGGCAUGGGCCCAGCCUCCUCGCUGGCGCCGGCUGGGCAACAUUCCGAGGGGACCGUCCCCUCGGUAAUGGCGUAUGGGACCCA as the variant, how does the self-cleavage read?
Answer: 0.443

From the RNAGym collection of RNA variant scans (doi:10.7554/elife.80360)
